{"source": "patent US20120165265A1", "about": "“Calcium Signaling Modulators Involving STIM and ORAI Proteins” (priority 2009, published 2012)", "format_in_all_cases": "cell-based", "key": {"CRAC channels": {"molecular_target": "T1, CRAC channels (Homo sapiens, UniProt Q96D31)", "T1 construct": "expressed in transfected cells; host or cells: HEK 293", "T1 sequence (Q96D31 whole entry, the tested form may be a part)": "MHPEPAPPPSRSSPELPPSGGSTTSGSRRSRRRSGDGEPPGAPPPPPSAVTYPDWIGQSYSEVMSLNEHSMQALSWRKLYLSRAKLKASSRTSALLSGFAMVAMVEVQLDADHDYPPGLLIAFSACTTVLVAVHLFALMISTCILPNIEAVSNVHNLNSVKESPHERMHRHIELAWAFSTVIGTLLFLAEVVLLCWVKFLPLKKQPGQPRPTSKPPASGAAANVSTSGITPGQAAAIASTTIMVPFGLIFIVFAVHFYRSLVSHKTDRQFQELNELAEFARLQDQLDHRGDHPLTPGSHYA", "assay": "[Ca2+]i imaging in HEK 293 cells expressing STIM1 fragment and Orai1", "conditions": "HEK 293 cells coexpressing construct and Orai1, no store depletion", "procedure": "Ca^2+ Imaging. For FIG. 2, cells were loaded at 37° C. in DMEM with 1 μM fura-2/AM for 30 min. Ratiometric Ca2+ imaging was performed at 340 and 380 nm in 2 mM Ca2+ Ringer's solution with a Nikon Eclipse 2000-U inverted microscope equipped with a fluorescent arc lamp, excitation filter wheel, and a Hamamatsu Orca CCD camera. Images were collected using Openlab (Improvision) and analyzed using Igor Pro.\nTo determine if CAD activates store operated Ca^2+ influx in cells, we measured [Ca^2+]i in HEK 293 cells expressing CAD and Orai1."}, "GFP-Orai1": {"molecular_target": "T2, GFP-Orai1 (Homo sapiens, UniProt Q96D31)", "T2 construct": "expressed in transfected cells", "T2 sequence (Q96D31 whole entry)": "as the sequence (Q96D31 whole entry, the tested form may be a part) above", "assay": "Fluorescence recovery after photobleaching (FRAP) of GFP-Orai1", "procedure": "Fluorescence Recovery After Photobleaching (FRAP). Inducible HEK 293 cells were transiently transfected with mCh-CAD and maintained with 10 μM LaCl3 to suppress chronic Ca2+ entry. After 15-16 h, eGFP-myc-Orai1 expression was induced with 1 μg/ml tetracycline in medium containing LaCl3. Cells were rinsed with 2 mM Ca2+ Ringer's solution at 24 h post-transfection prior to imaging on the confocal system described above. Prebleach and recovery images were scanned at 488 nm at low power (20 mW Ar laser, 50% power, 6% transmission). A 3-μm strip was bleached at 50% laser power with full transmission for ˜2 s. Bleaching during the recovery period was negligible (<5%). FRAP recovery curves were analyzed with ImageJ (W. S. Rasband, NIH, Bethesda, Md., following a published method in which an empirical formula approximating the one-dimensional solution of the diffusion equation is fitted to the time course of fluorescence recovery within the bleached ROI. An offset was introduced to account for incomplete bleaching. The\nwhere I(t) is the mean intensity within the bleached region at time t, Ib is the intensity immediately after bleaching, If is the intensity after full recovery, w is the width of the bleached region, and D is the effective diffusion coefficient, was fit to the FRAP recovery curves with Igor Pro 5.0 (Wavemetrics) to determine D. Mobility was determined as (If−Ib)/(I0−Ib), where If and Ib are defined as above, and I0 is the initial intensity within the ROI after correction for the loss of whole-cell fluorescence by the bleaching pulse (˜10%).\nTo test whether CAD also clusters CRAC channels in intact cells, we conducted fluorescence recovery after photobleaching (FRAP) experiments of GFP-Orai1 expressed alone or with CAD in HEK 293 cells. […] In cells co-expressing GFP-Orai1 and CAD, the mobile fraction was unchanged (87±4%) but Orai1 diffusion was slowed by a factor of two (D=0.036±0.006 μm^2/s, n=6)."}, "endogenous CRAC channels": {"test_system": "endogenous CRAC channels", "assay": "NFAT-luciferase assay in HEK 293T (NFAT-Luc) cells", "conditions": "HEK 293T NFAT-luc cells transfected with STIM1 construct; PMA (1 μM) alone; listed as D5", "procedure": "NFAT-luciferase Assays. HEK 293T cells were co-transfected with the indicated constructs and an NFAT reporter gene (firefly luciferase gene C-terminal to 4×-NFAT site from the IL-2 gene). Cotransfection with the Renilla luciferase (pRLTK) gene driven by the TK promoter was used to control for cell number and transfection efficiency. After 12-18 h, cells were treated with a control DMSO solution (mock), PMA (1 μM), or PMA plus TG (1 μM) for 8 h. Assays were performed using the Dual Luciferase Reporter assay system (Promega). For each condition, luciferase activity was measured with 4 samples taken from duplicate wells using a 96-well automated luminometer (Turner Biosystems). Results are represented as the ratio of firefly to Renilla luciferase activity.\nIdentifying a Minimal Cytosolic Region of STIM1 that Opens the CRAC Channel. To identify the CRAC-activating domain of STIM1, we first tested a series of soluble cytosolic STIM1 fragments for their ability to activate an NFAT-dependent luciferase reporter gene (NFAT-luc). A series of constructs were generated by progressive truncation of the full-length cytosolic region of STIM1 (FIG. 2A; STIM1234-685; CT-STIM1) and were transiently expressed in a HEK 293T cell line containing NFAT-luc. […]"}}, "note": "Entries after “also recorded” stand apart in the source; their conditions may differ.", "data": [{"substance": "CAD: 107-residue CRAC activation domain within the C-terminus of STIM1 (aa 342-448), SEQ ID NO:1", "values": [{"measurement": "[Ca2+]i / CRAC channel activation", "setting": "CRAC channels", "result": "sustained [Ca^2+]i elevation"}, {"measurement": "mobile fraction of GFP-Orai1", "setting": "GFP-Orai1; HEK 293 cells co-expressing GFP-Orai1 and CAD", "result": "87±4", "unit": "%"}, {"measurement": "effective diffusion coefficient (D) of GFP-Orai1, mean", "setting": "GFP-Orai1; HEK 293 cells co-expressing GFP-Orai1 and CAD, n=6", "result": "0.036±0.006", "unit": "μm^2/s"}, {"measurement": "diffusion coefficient of eGFP-Orai1, single-cell fit", "setting": "GFP-Orai1; single cell expressing eGFP-Orai1 with CAD (FIG. 6D)", "result": 0.026, "unit": "μm^2/s"}, {"measurement": "activation of NFAT-dependent luciferase reporter gene (NFAT-luc)", "setting": "endogenous CRAC channels", "result": "active; also recorded: necessary and sufficient to activate NFAT"}]}]}
